From the Immune Epitope Database (IEDB)

Key:
HLA-B*08:01 = assay: IEDB peptide-MHC binding, purified MHC/competitive/fluorescence; filed as Kd, often an IC50 or EC50 that approximates it; ≥ and ≤ were set here for values at or beyond the usual limits of such assays
HLA-B*27:03 = assay: as above
HLA-A*03:01 [1] = assay: as above; details: source organism: Giardia lamblia ATCC 50803
HLA-A*02:01 = assay: as above
HLA-B*15:01 [2] = assay: as above
HLA-B*15:17 = assay: as above
HLA-B*39:01 [3] = assay: as above
HLA-A*24:03 [4] = assay: as above; details: source organism: Giardia lamblia ATCC 50803
HLA-B*18:01 = assay: as above
HLA-B*46:01 [5] = assay: as above
HLA-B*57:01 [6] = assay: as above
HLA-B*51:01 [7] = assay: as above
HLA-A*26:01 = assay: as above
HLA-A*02:03 [8] = assay: as above; details: source organism: Giardia lamblia ATCC 50803
HLA-A*02:11 [9] = assay: as above; details: source organism: Giardia lamblia ATCC 50803
HLA-A*02:12 [10] = assay: as above; details: source organism: Giardia lamblia ATCC 50803
HLA-A*29:02 [11] = assay: as above; details: source organism: Giardia lamblia ATCC 50803
HLA-A*02:19 [12] = assay: as above; details: source organism: Giardia lamblia ATCC 50803
HLA-A*03:01 [13] = assay: IEDB peptide-MHC binding, purified MHC/direct/fluorescence; filed as Kd, often an IC50 or EC50 that approximates it; ≥ and ≤ were set here for values at or beyond the usual limits of such assays
HLA-A*01:01 = assay: as above; details: source organism: Escherichia coli O157:H7
HLA-B*48:01 = assay: as above; details: source organism: Escherichia coli O157:H7
HLA-B*58:01 = assay: as above; details: source organism: Escherichia coli O157:H7
HLA-A*11:01 = assay: as above
HLA-B*46:01 [14] = assay: as above; details: source organism: Escherichia coli O157:H7
HLA-B*57:01 [15] = assay: as above; details: source organism: Escherichia coli O157:H7
HLA-B*27:05 = assay: as above; details: source organism: Escherichia coli O157:H7
HLA-A*31:01 = assay: as above; details: source organism: Escherichia coli O157:H7
HLA-B*40:01 = assay: as above; details: source organism: Escherichia coli O157:H7
HLA-A*69:01 = assay: IEDB peptide-MHC binding, purified MHC/competitive/fluorescence; filed as Kd, often an IC50 or EC50 that approximates it; ≥ and ≤ were set here for values at or beyond the usual limits of such assays
HLA-B*51:01 [16] = assay: IEDB peptide-MHC binding, purified MHC/direct/fluorescence; filed as Kd, often an IC50 or EC50 that approximates it; ≥ and ≤ were set here for values at or beyond the usual limits of such assays; details: source organism: Homo sapiens
HLA-B*15:01 [17] = assay: IEDB peptide-MHC binding, purified MHC/competitive/fluorescence; ≥ and ≤ were set here for values at or beyond the usual limits of such assays; details: source organism: Sudan ebolavirus
HLA-A*24:02 = assay: as above; details: source organism: Sudan ebolavirus
HLA-A*02:16 = assay: IEDB peptide-MHC binding, purified MHC/direct/fluorescence; filed as Kd, often an IC50 or EC50 that approximates it; ≥ and ≤ were set here for values at or beyond the usual limits of such assays
HLA-B*15:01 [18] = assay: as above; details: source organism: Ebola virus - Eckron (Zaire, 1976)
HLA-A*24:03 [19] = assay: as above
HLA-A*68:02 = assay: as above
HLA-A*02:03 [20] = assay: as above
HLA-A*23:01 = assay: as above
HLA-A*02:11 [21] = assay: as above
HLA-A*02:12 [22] = assay: as above
HLA-A*29:02 [23] = assay: as above
HLA-A*02:19 [24] = assay: as above
HLA-B*39:01 [25] = assay: as above; details: source organism: Camelpox virus M-96
HLA-B*45:06 = assay: IEDB peptide-MHC binding, purified MHC/competitive/fluorescence; filed as Kd, often an IC50 or EC50 that approximates it; ≥ and ≤ were set here for values at or beyond the usual limits of such assays; details: source organism: Vibrio parahaemolyticus RIMD 2210633
HLA-B*15:42 = assay: as above; details: source organism: Vibrio parahaemolyticus RIMD 2210633
HLA-B*83:01 = assay: as above; details: source organism: Vibrio parahaemolyticus RIMD 2210633
[26] = source organism: Giardia lamblia ATCC 50803
[27] = source organism: Escherichia coli O157:H7
[28] = source organism: Escherichia coli O157:H7 str. EDL933
[29] = source organism: Zaire ebolavirus
[30] = source organism: Vibrio parahaemolyticus RIMD 2210633

MQQGRFPPL gave a Kd (HLA-B*08:01; source organism: Yersinia pestis CO92) of 0.34 µM.
AILAGEHKC was tested, and the Kd (HLA-B*27:03; [26]) was no less than 20 µM, the Kd (HLA-A*03:01 [1]) was no less than 20 µM and the Kd (HLA-A*02:01; [26]) was no less than 20 µM. For the same sequence, the Kd (HLA-B*15:01 [2]; [26]) was no less than 20 µM, the Kd (HLA-B*15:17; [26]) was no less than 20 µM and the Kd (HLA-B*39:01 [3]; [26]) was no less than 20 µM. It also gave a Kd (HLA-A*24:03 [4]) of no less than 20 µM, a Kd (HLA-B*18:01; [26]) of no less than 20 µM and a Kd (HLA-B*46:01 [5]; [26]) of no less than 20 µM. The Kd (HLA-B*57:01 [6]; [26]) was no less than 20 µM, the Kd (HLA-B*51:01 [7]; [26]) was no less than 20 µM and the Kd (HLA-A*26:01; [26]) was no less than 20 µM. For the same sequence, the Kd (HLA-A*02:03 [8]) was no less than 20 µM, the Kd (HLA-A*02:11 [9]) was no less than 20 µM and the Kd (HLA-A*02:12 [10]) was 3.73 µM. It also gave a Kd (HLA-A*29:02 [11]) of no less than 20 µM and a Kd (HLA-A*02:19 [12]) of no less than 20 µM.
FIVEHINAM gave a Kd (HLA-A*03:01 [13]; [27]) of no less than 20 µM, a Kd (HLA-A*01:01) of no less than 20 µM and a Kd (HLA-B*48:01) of no less than 20 µM. The Kd (HLA-B*58:01) was no less than 20 µM, the Kd (HLA-A*11:01; [27]) was no less than 20 µM and the Kd (HLA-B*46:01 [14]) was 0.232 µM. It also gave a Kd (HLA-B*57:01 [15]) of no less than 20 µM, a Kd (HLA-B*27:05) of no less than 20 µM and a Kd (HLA-A*31:01) of no less than 20 µM. The Kd (HLA-B*40:01) was no less than 20 µM, the Kd (HLA-B*08:01; [28]) was 0.91 µM and the Kd (HLA-A*02:01; [28]) was 0.0104 µM. For the same sequence, the Kd (HLA-A*69:01; [28]) was 0.68 µM and the Kd (HLA-B*15:01 [2]; [28]) was 0.0925 µM.
With YPGFGEHLI the Kd (HLA-B*51:01 [16]) was 1.89 µM.
ILNRKAIDF was tested, and the IC50 (HLA-B*15:01 [17]) was 12.5 µM, the IC50 (HLA-A*24:02) was 3.28 µM and the Kd (HLA-A*03:01 [13]; [29]) was no less than 20 µM. For the same sequence, the Kd (HLA-A*02:16; [29]) was no less than 20 µM, the Kd (HLA-B*15:01 [18]) was 0.372 µM and the Kd (HLA-A*24:03 [19]; [29]) was no less than 20 µM. It also gave a Kd (HLA-A*68:02; [29]) of no less than 20 µM, a Kd (HLA-A*02:03 [20]; [29]) of no less than 20 µM and a Kd (HLA-A*23:01; [29]) of no less than 20 µM. For the same sequence, the Kd (HLA-A*02:11 [21]; [29]) was no less than 20 µM, the Kd (HLA-A*02:12 [22]; [29]) was no less than 20 µM and the Kd (HLA-A*29:02 [23]; [29]) was no less than 20 µM. It also gave a Kd (HLA-A*02:19 [24]; [29]) of no less than 20 µM, a Kd (HLA-B*27:03; [29]) of no less than 20 µM and a Kd (HLA-A*02:01; [29]) of no less than 20 µM. For the same sequence, the Kd (HLA-A*69:01; [29]) was no less than 20 µM, the Kd (HLA-B*15:17; [29]) was no less than 20 µM and the Kd (HLA-B*39:01 [3]; [29]) was no less than 20 µM. The Kd (HLA-B*18:01; [29]) was no less than 20 µM, the Kd (HLA-B*46:01 [5]; [29]) was no less than 20 µM and the Kd (HLA-B*57:01 [6]; [29]) was no less than 20 µM. It also gave a Kd (HLA-B*51:01 [7]; [29]) of no less than 20 µM and a Kd (HLA-A*26:01; [29]) of no less than 20 µM.
In the case of HHDPILNGL, the Kd (HLA-B*39:01 [25]) is reported as 0.0426 µM.
With SMNYPNSYK the Kd (HLA-A*02:16; [30]) was no less than 20 µM, the Kd (HLA-A*11:01; [30]) was no more than 0.001 µM and the Kd (HLA-A*24:03 [19]; [30]) was no less than 20 µM. The Kd (HLA-A*68:02; [30]) was no less than 20 µM, the Kd (HLA-A*02:03 [20]; [30]) was no less than 20 µM and the Kd (HLA-A*23:01; [30]) was no less than 20 µM. It also gave a Kd (HLA-A*02:11 [21]; [30]) of no less than 20 µM, a Kd (HLA-A*02:12 [22]; [30]) of no less than 20 µM and a Kd (HLA-A*29:02 [23]; [30]) of no less than 20 µM. It also gave a Kd (HLA-A*02:19 [24]; [30]) of no less than 20 µM, a Kd (HLA-B*45:06) of no less than 5 µM and a Kd (HLA-A*02:01; [30]) of no less than 20 µM. It also gave a Kd (HLA-A*69:01; [30]) of no less than 20 µM, a Kd (HLA-B*15:17; [30]) of no less than 20 µM and a Kd (HLA-B*39:01 [3]; [30]) of no less than 20 µM. For the same sequence, the Kd (HLA-B*18:01; [30]) was no less than 20 µM, the Kd (HLA-B*46:01 [5]; [30]) was no less than 20 µM and the Kd (HLA-B*57:01 [6]; [30]) was no less than 20 µM. The Kd (HLA-B*15:42) was no less than 5 µM, the Kd (HLA-B*51:01 [7]; [30]) was no less than 20 µM and the Kd (HLA-A*26:01; [30]) was no less than 20 µM. The Kd (HLA-B*83:01) was no less than 5 µM.
